Results: patent US20150086564A1 (CENTRE NATIONAL DE LA RECHERCHE SCIENTIFIQUE CNRS, published 2015)

T1: recombinant human sPLA2-IIA N1A mutant (human, UniProt P14555 22-144)
T1 construct: also called N1A sPLA2-IIA mutant
T1 sequence: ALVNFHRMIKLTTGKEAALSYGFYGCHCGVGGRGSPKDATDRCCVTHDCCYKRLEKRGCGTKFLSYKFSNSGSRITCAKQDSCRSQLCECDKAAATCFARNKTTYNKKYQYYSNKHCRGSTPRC

B1: monoclonal anti-sPLA2-IIA antibody #9C8 (antibody, IgG1, V domains shown)
VH: DVELVESGGGLVKLGGSLKLSCAASGFTFSSYYMSWVRQTPEKRLELVAAINSNGGSTYYPDTVKGRFTISRDNAKNTLYLQMSSLKSEDTALYYCARQGYGNFFDYWGQGTTLTVSS
VL: DVVMTQTPLSLPVSLGDQASISCRSSQSIVHSNGNTYLYWYLQKPGQSPKLLIYRVSNRFSGVPDRFSGSGSGTDFTLKISRVEAEDMGVYYCFQGTHVPRTFGGGTNLEIKR
notes: also called 9C8 antibody
B2: biotinylated monoclonal antibody #9C8 (antibody, mouse IgG1, V domains shown)
VH: B1 VH
VL: B1 VL
modifications: biotinylated (Pierce kit ref. 21435), sites not stated
notes: also called biotinylated #9C8
B3: monoclonal anti-sPLA2-IIA antibody #6G2 (antibody, IgG1, V domains shown)
VH: QVQLQQSGAELVKPGASVKLSCKASGYTFTSYDINWVRQRPEQGLEWIGWIFPGDGSTEYNEKFKGKATLTTDKSSSTAYMQLSRLTSEDSAVYFCARWGITAFPLFDYWGQGTALTVSS
VL: DIVLTQSPASLAVSLGQRATISCRASESVDYDGDSYMNWYQQKPGQPPKLLIYAASNLESGIPARFSGSGSGTDFTLNIHPVEEEDAATYYCLQSNEAPWTFGGGTKLEIKR
notes: also called 6G2 antibody
B4: biotinylated monoclonal antibody #6G2 (antibody, mouse IgG1, V domains shown)
VH: B3 VH
VL: B3 VL
modifications: biotinylated (Pierce kit ref. 21435), sites not stated
notes: also called #6G2-Biot; 6G2-biot

What was measured:
[1] = target: T1, recombinant human sPLA2-IIA N1A mutant; assay: indirect ELISA on coated sPLA2-IIA N1A, anti-mouse IgG-HRP detection, one-site saturation fit
[2] = target: T1, recombinant human sPLA2-IIA N1A mutant; assay: indirect ELISA on coated sPLA2-IIA N1A (50 ng/well), one-site saturation fit, relative Kd
[3] = target: T1, recombinant human sPLA2-IIA N1A mutant; assay: indirect ELISA on coated sPLA2-IIA N1A, streptavidin-HRP detection, one-site saturation fit

Binder | Kd [1] | Kd [2] | Kd [3]
B1 | 1.17 nM | 1.71 nM | –
B2 | – | – | 3.34 nM
B3 | 0.0817 nM | 0.124 nM | –
B4 | – | – | 0.22 nM
